# From the RNAGym collection of RNA variant scans (doi:10.1073/pnas.2313332121)
# Fewer inactive variants are shown than the library holds.
# B1: TPR 5TU (parent)
# chain: GGAUCUUCUCGAUCUAACAAAAAAGACAAAUCUGCCACAAAGCUUGAGAGCAUCUUCGGAUGCAGAGGCGGCAGCCUUCGGUGGCGCGAUAGCGCCAACGUUCUCAACUAUGACACGCAAAACGCGUGCUCCGUUGAAUGGAGUUUAUCAUG
# Variants of: B1
# Experiment: polymerase ribozyme fitness, log enrichment relative to wild type (log ratio); higher = more active; in vitro selection for triplet polymerase activity
# How it was run: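 Frozen incubation at −7 °C formed the core of a single, triplicate in vitro selection round applied to PCR-built, transcribed mutant libraries of each subunit of a heterodimeric triplet polymerase ribozyme. Extended constructs were gel-excised, captured with streptavidin beads and amplified by RT-PCR, and input and output libraries were Illumina-sequenced with a filter of ≥10 input reads and ≥1 read per output. Fitness is the logarithm of genotype enrichment relative to wild-type enrichment, with inverse-variance-weighted replicate averaging, and the logarithm is base 2.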
row,Variant,polymerase ribozyme fitness (log ratio)
1,GGAUCUUCUCGGUCUAACAAAAAAGACAAAUUUGCCACAAAGCUUGAGAGCAUCUUCGGAUGCAGAGGCGGCAGCCUUCGGUGGAGCGAUAGCGCCAACGUUCUCAACUAUGACACGCAAAACGCGUGCUCCGUUGCAUGGAGUUUAUCAUG [A12G C32U C85A A137C],≤ -4.2
2,GGAUCUUCUCGGUCUAACAAAAAAGACAAAUCUGCCACAAAGCUUGAGAGCAUCUUCGGAUGCAGAGGCGGCAGCCUUCGGUGACGCGAUAGCGCCAACGUUCUCAACUAUGACACGCAAAACGCGUGCUCCGUUGAAUGGAGUUUAUCAUG [A12G G84A],-0.68
3,GGAUCUUCUCGGUCUAACAAAAAAGACAAAUCUGUCACAAAGCUUGAGAGCAUCUUCGGAUGCAGAGGCGGCAGCCUUCGGUAGCGCGAUAGCGCCAACGUUCUCAACUAUGACACGCAAAACGCGUGCUCCGUUGAAUGGAGUUUAUCAUG [A12G C35U G83A],-0.598
4,GGAUCUUCUCGGUCUAACAAAAAAGACAAAUCUGCCACAAAGCUUGAGAGCAUCUUCGGAUGCAGAGGCGGCAGCCUUCGGUGGCGCGAUAGCGCCAACGUUCUCAACUAUGACAGGCAAAACGCUUGCUCCGUUGAAUGGAGUUUAUCAUG [A12G C116G G126U],1.17
5,GGAUCUUCUCGGUCUAACAAAAAAGACAAAUCUGCCACAAAGCUUGAGAGCAUUUUCGGAUGCAGAGGCGGCAGCCUUCGGUGGCUCGAUAGCGCCAACGUUCUUAACUAUGACACGCAAAACGCGUGCUCCGUUGAAUGGAAUUUAUCAUG [A12G C54U G86U C105U G143A],-2.5
6,GGAUCUUCUCGGUCUAACAAAAAAGACAAAUCUGCCACAAAGCUUGAGAGCAUCUUCGGAUGCAGAGGCAGCAGCCUUCGGUGGCGCGAUAGCGCCAACGUUCUCAACUAUGACACGUAAAACGCGUGCUCCGUUGAAUGGAGUUUAUCAUG [A12G G70A C118U],-3.56
7,GGAUCUUCUCGGUCUAACAAAAAAGACAAAUCUGCCACAAAGCUUGAGAGCAUCUUCGGAUGUAGAGGCGGCAGCCUUCGGUGGCGCGAUAGCGCCAACGUUCUCAACUAUGACACGCAAAACGCGUGCUCCGAUGAAUGGAGUUUAUCAUG [A12G C63U U134A],-2.26
8,GGAUCUUCUCGGUCUAACAAAAAAGACAAAUCUGCCACAAAGCUUGAGAGCAUCUUCGGAUGCAGAGGCGGCAGCCUUCGGUGGCGCGAUAGGGCCAGCGUUCUCAACUAUGACACGCAAAACGCGUGCUCCGUUGAAUGCAGUUUAUCAUG [A12G C93G A98G G141C],-2.52
9,GGAUCUUCUCGGUCUAACAAAAAAGACAAAUCUGCCACAAAACUUGAGAGCAUCUUCGGAUACAGAGGCGGCAGCCUUCGGUGGCGCGAUAGCGCCAACGCUCUGAACUAUGACACGCAAAACGCGUGCUCCGGUGAAUGGAGUUUAUCAUG [A12G G42A G62A U101C C105G U134G],≤ -4.2
10,GGAUCUUCUCGGCCUAACAAAAAAGACAAAUCUGCCAUAAAGCUUGAGAGCAUCUUCAGAUGCAGAGGCGGCUGCCUUCGGUGGCGCGAUAGCGCCAACGUUCUCAACUAUGACACGCAAAACGCGUGCUCCGUUGAAUGGAGUUUAUCAUG [A12G U13C C38U G58A A73U],-1.35
11,GGAUCUUCUCGGUAUAACAAAAAAGACAAAUCUGCCACAAAGCUUGAGAGCAUCUUAGGAUGCAGAGGCGGCAGCCUUCGGUGGGGCGAUAGCGCCAACGUUCUCAACUAUGACACGCAAAACGCGUGCUCCGUUGAAUGGAGUUUAUCAUG [A12G C14A C57A C85G],-3.75
12,GGAUCUUCUCGGUCUAACAAAAAAGACAAAUCUGCCACAAAGCUUGAGAGCAUCUUCGGAUGCAGAGGCGGCAGCCUUCGGUAGCGCGAUAGCGCCAACGUUCUCAACUAUGACACGCAAAACGCGUGCUCCCUUGAAUGGAAUUGAUCAUG [A12G G83A G133C G143A U146G],-3.34
13,GGAUCUUCUCGGUUUAACGAUAAAGACGAAUCUGCCACAAAGCUUGAGAGCAUCUUCGGAUGCACAGGCGGCAGCCUUCGGUGCCGCGAUAGCGCCAACGUUCUCAACUAUGACACGCAAAACUCGUGCUCCGUUGAAUGGACUCUAUCAUG [A12G C14U A19G A21U A28G G65C G84C G124U G143C U145C],≤ -4.2
14,GGAUCUUCUCGGUCUAAUAAAAAAGACAAAUCUGCCACAAAGCUUGAGAGCAUCUUCGGAUGCAGAGGCGGCAGCCUUCGGUUGCGCGGUAGCGCUAACGUUCUCAACUAUGACACGCAAAACGCGUGCUCCGUUGAAUGGAGUUUAUCAUG [A12G C18U G83U A89G C96U],-1.73
15,GGAUCUUCUCGGUCUAACAAAAAAGACAAAUCUGCCACAAAGCUUGAAAGCAUCUUCGGAUGCAGAGGCGACAGCCUUCGGUGGCACGAUAGCGCCAACGUUCUCAACUAUGACACGCAAAACGCUUGCUACGUUGAAUUGAGUUUAUAGUG [A12G G48A G71A G86A G126U C131A G140U C149A A150G],≤ -4.2
16,GGAUCUUCUCGGUCUAACAAAAAAGACAAAUCUGCCACAAAGCUUGAGAGCAUCUUCGGAUGCAGAGGCGGCAGCCUUCGGUGGUGCGAUAGCGCCAACGUUCUCAACUAUGACACGCAAAACGCGUGCUCCGUUGAAUGGAGUUUAUCAUG [A12G C85U],0.000103
17,GGAUCUUCUCGGUCUAACAAAAAAGACAAAUCUGCCACAAAGCUUGAGAGCAUCUUCGGAUGCAGAGGCGGCAGCCUUCGGUGGGGCGAUAGCGCCAACGUUCUCAACUAUGACACGCAAAACGCGUGCUCCGUUGAAUGGAGUUUAUCAUG [A12G C85G],-1.96
18,GGAUCUUCUCGGUCUAACAAAAAAGACAAAUCUGCCACAAAGCUUGAGAGCAUCUUCGGAUGCAGAGGCGGCAGCCUUCGGUGGUGCGAUAGCGCCAACGUUCUCAACUAUGACACGCAAAACGCGUGAUCCGUUGAAUGGAGUUUAUCACG [A12G C85U C129A U151C],≤ -4.2
19,GGAUCUUCUCGGUCUAACAAAAAAGACAAAUCUGCCACAAAGCUUGAGAGCAUCUUCGGAUGCAGAGGCGGCAGCCUUCGGUGGCGCGAUAGGGCCAACGUUCUCAACUAUGACACGCAAAACGCGUGCUCCGUUGAAUGGAGUUUAUCAUG [A12G C93G],-2.99
